Measured values as given in patent US20250092109A1 (XILIO DEVELOPMENT, published 2025).
One block for each binder: values may come before it.

B2: IL-2 V2 (ligand)
chain: APTSSSTKKTQLQLEHLLLDLQMILNGINNYKNPKLTAMLTAKFAMPKKATELKHLQCLEEALKPLEEVLNLAQSKNFHLRPRDLISNINVIVLELKGSETTFMCEYADETATIVEFLNRWITFAQSIISTLT

How the values were obtained:
CD25 on CD25+ cells = biological target: T1, CD25 on CD25+ cells (UniProt P01589 22-272, limits assumed); assay: cell-based or functional assay
T1 sequence (looked up): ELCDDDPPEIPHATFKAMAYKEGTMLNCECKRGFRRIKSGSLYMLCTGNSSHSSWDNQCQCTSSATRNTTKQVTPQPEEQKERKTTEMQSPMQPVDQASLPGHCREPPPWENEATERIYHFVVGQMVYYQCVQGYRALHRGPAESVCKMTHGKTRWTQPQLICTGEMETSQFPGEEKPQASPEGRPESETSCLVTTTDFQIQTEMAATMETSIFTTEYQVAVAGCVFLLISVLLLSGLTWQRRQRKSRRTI

IL-2 V2 = biological target: B2; assay: cell-based or functional assay
IL-2 [1] = biological target: T2, IL-2 (UniProt P60568 21-153); assay: SPR
T2 construct: also called interleukin 2
Target sequence in this assay (P60568 21-153 limits assumed): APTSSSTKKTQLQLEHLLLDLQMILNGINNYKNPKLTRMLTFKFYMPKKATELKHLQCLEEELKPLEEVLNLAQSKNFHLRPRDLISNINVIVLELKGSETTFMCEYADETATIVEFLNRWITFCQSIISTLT

IL-2 V3 = IL-2 V3 (Homo sapiens (Human), UniProt P60568 21-153); assay: cell-based or functional assay
IL-2 [2] = biological target: T2, IL-2; assay: SPR, criterion of kinetic Group 2

EC50 (read off the curve), %pSTAT5+ of CD4+FoxP3+CD25+ cells (CD25 on CD25+ cells): ~3000 pM
B1: IL-2 V7 (ligand)
chain: APTSSSTKKTQLQLEHLLLDLQMILNGINNYKNPKLTRMLTSKFYMPKKATELKHLQCLEESLKPLEEVLNLAQSKNFHLRPRDLISNINVIVLELKGSETTFMCEYADETATIVEFLNRWITFAQSIISTLT

EC50 (pM) of intact construct C10, HEK Blue cell-based reporter assay (IL-2 V2): 3970 pM
Fold Change (Intact/Cleaved), construct C10, HEK Blue assay (IL-2 V2): 202 fold
Fold Change (Intact/Parental), construct C10, HEK Blue assay (IL-2 V2): 118 fold
Kd (IL-2 [1]): 1.35 nM
koff (IL-2 [1]): 0.00427 s⁻¹
kon (IL-2 [1]): 3.15e+06 M⁻¹ s⁻¹
kd relative to VHH1 kd (IL-2 [2]): > 6 fold of VHH1 kd
B6: VHH26 (VHH)
VHH: EVQLVESGGGLVQPGGSLRLSCAASGSIFSSNVMGWYRQAPGKQRELVAAISSGGSTNYADSVKGRFTISRDNAKNTVYLQMNSLKPEDTAVYYCAYASSYYEDETDYWGQGTQVTVSS
notes: In the functional rows it stood as the masking moiety of construct C10; also called I31S, M96A, W101Y

kd relative to VHH1 kd (IL-2 [2]): > 6 fold of VHH1 kd
B9: VHH5 (VHH)
VHH: EVQLVESGGGLVQPGGSLRLSCAASGSIFSINVMGWYRQAPGKQRELVAAISSGGSTNYADSVKGRFTISRDNAKNTVYLQMNSLKPEDTAVYYCAYASSWYEDETDYWGQGTQVTVSS
notes: also called M96A

EC50 (pM) of intact construct C8, HEK Blue cell-based reporter assay (IL-2 V2): 4270 pM
Fold Change (Intact/Cleaved), construct C8, HEK Blue assay (IL-2 V2): 176 fold
Fold Change (Intact/Parental), construct C8, HEK Blue assay (IL-2 V2): 127 fold
Kd (IL-2 [1]): 0.00457 nM
koff (IL-2 [1]): 2.18e-06 s⁻¹
kon (IL-2 [1]): 476000 M⁻¹ s⁻¹
B11: VHH6 (VHH)
VHH: EVQLVESGGGLVQPGGSLRLSCAASGSIFSINVMGWYRQAPGKGRELVAAISSGGSTNYADSVKGRFTISRDNAKNTVYLQMNSLKPEDTAVYYCMYASSWYEDETDYWGQGTQVTVSS
notes: In the functional rows it stood as the masking moiety of construct C8; also called Q44G

EC50 (pM) of intact construct C11, HEK Blue cell-based reporter assay (IL-2 V2): 2860 pM
Fold Change (Intact/Cleaved), construct C11, HEK Blue assay (IL-2 V2): 118 fold
Fold Change (Intact/Parental), construct C11, HEK Blue assay (IL-2 V2): 84.9 fold
Kd (IL-2 [1]): 3.99 nM
koff (IL-2 [1]): 0.00237 s⁻¹
kon (IL-2 [1]): 594000 M⁻¹ s⁻¹
kd relative to VHH1 kd (IL-2 [2]): > 6 fold of VHH1 kd
B12: VHH36 (VHH)
VHH: EVQLVESGGGLVQPGGSLRLSCAASGSIFSSNVMGWYRQAPGKGLELVAAISSGGSTNYADSVKGRFTISRDNAKNTVYLQMNSLKPEDTAVYYCAYASSYYEDETDYWGQGTQVTVSS
notes: In the functional rows it stood as the masking moiety of construct C11; also called I31S, Q44G, R45L, M96A, W101Y

EC50 (pM) of intact construct C12, HEK Blue cell-based reporter assay (IL-2 V2): 4140 pM
Fold Change (Intact/Cleaved), construct C12, HEK Blue assay (IL-2 V2): 180 fold
Fold Change (Intact/Parental), construct C12, HEK Blue assay (IL-2 V2): 123 fold
Kd (IL-2 [1]): 10.9 nM
B13: VHH9 (VHH)
VHH: EVQLVESGGGLVQPGGSLRLSCAASGSIFSINVMGWYRQAPGKGRELVAAISSGGSTNYADSVKGRFTISRDNAKNTVYLQMNSLKPEDTAVYYCAYASSFYEDETDYWGQGTQVTVSS
notes: In the functional rows it stood as the masking moiety of construct C12; also called Q44G, M96A, W101F

kd relative to VHH1 kd (IL-2 [2]): > 6 fold of VHH1 kd
B14: VHH21 (VHH)
VHH: EVQLVESGGGLVQPGGSLRLSCAASGSIFSSNVMGWYRQAPGKQRELVAAISSGGSTNYADSVKGRFTISRDNAKNTVYLQMNSLKPEDTAVYYCAYASSFYEDETDYWGQGTQVTVSS
notes: also called I31S, M96A, W101F

The next lines start with the binder.

Binder: B2
EC50 (read off the curve), %pSTAT5+ of CD4+FoxP3+CD25+ cells (CD25 on CD25+ cells): ~4000 pM

B3: VHH1 (VHH)
VHH: EVQLVESGGGLVQPGGSLRLSCAASGSIFSINVMGWYRQAPGKQRELVAAISSGGSTNYADSVKGRFTISRDNAKNTVYLQMNSLKPEDTAVYYCMYASSWYEDETDYWGQGTQVTVSS
notes: In the functional rows it stood as the masking moiety of constructs C7, C2, C4 and C6, fused to an Fc chain; also called Parental; parental anti-IL-2
EC50 (pM) of intact construct C7, HEK Blue cell-based reporter assay (IL-2 V2): 3390 pM
Fold Change (Intact/Cleaved), construct C7, HEK Blue assay (IL-2 V2): 112 fold
Fold Change (Intact/Parental), construct C7, HEK Blue assay (IL-2 V2): 101 fold
Kd (IL-2 [1]): 0.0601 nM
koff (IL-2 [1]): 3.28e-05 s⁻¹
kon (IL-2 [1]): 546000 M⁻¹ s⁻¹
Average EC50 (nM) with MMP, construct C2, pSTAT5 on CD8+ T cells of hPBMCs (IL-2 V3): 0.23 nM
Average EC50 (nM) with MMP, construct C4, pSTAT5 on CD8+ T cells of hPBMCs (IL-2 V3): 0.26 nM
Average EC50 (nM) with MMP, construct C6, pSTAT5 on CD8+ T cells of hPBMCs (IL-2 V3): 0.28 nM
Average EC50 (nM) without MMP, construct C2, pSTAT5 on CD8+ T cells of hPBMCs (IL-2 V3): 137 nM
Average EC50 (nM) without MMP, construct C4, pSTAT5 on CD8+ T cells of hPBMCs (IL-2 V3): 136 nM
Average EC50 (nM) without MMP, construct C6, pSTAT5 on CD8+ T cells of hPBMCs (IL-2 V3): 470 nM
Fold Change (Cleaved/Unmasked Control), construct C2 (IL-2 V3): 4.2 fold
Fold Change (Cleaved/Unmasked Control), construct C4 (IL-2 V3): 4.7 fold
Fold Change (Cleaved/Unmasked Control), construct C6 (IL-2 V3): 5.1 fold
Fold Masking (Uncleaved/Unmasked Control), construct C2 (IL-2 V3): 2490 fold
Fold Masking (Uncleaved/Unmasked Control), construct C4 (IL-2 V3): 2470 fold
Fold Masking (Uncleaved/Unmasked Control), construct C6 (IL-2 V3): 8550 fold

B4: VHH46 (VHH)
VHH: EVQLVESGGGLVQPGGSLRLSCAASGSIFSINVMGWYRQAPGKQRELVAAISSGGSTNYADSVKGRFTISRDNAKNTVYLQMNSLKPEDTAVYYCMYASSWYEDETDYWGQGTQVTVSS
Average EC50 (nM) with MMP, construct C5, pSTAT5 on CD8+ T cells of hPBMCs (IL-2 V3): 0.25 nM
Average EC50 (nM) without MMP, construct C5, pSTAT5 on CD8+ T cells of hPBMCs (IL-2 V3): 411 nM
Fold Change (Cleaved/Unmasked Control), construct C5 (IL-2 V3): 4.5 fold
Fold Masking (Uncleaved/Unmasked Control), construct C5 (IL-2 V3): 7470 fold

B5: VHH31 (VHH)
VHH: EVQLVESGGGLVQPGGSLRLSCAASGSIFSSNVMGWYRQAPGKGLELVAAISSGGSTNYADSVKGRFTISRDNAKNTVYLQMNSLKPEDTAVYYCAYASSFYEDETDYWGQGTQVTVSS
notes: also called I31S, Q44G, R45L, M96A, W101F
kd relative to VHH1 kd (IL-2 [2]): > 6 fold of VHH1 kd

B7: VHH40 (VHH)
VHH: EVQLVESGGGLVQPGGSLRLSCAASGSIFSINVMGWYRQAPGKQRELVAAISSGGSTNYADSVKGRFTISRDNAKNTVYLQMNSLKPEDTAVYYCMYASSWYEDETDYRGQGTLVTVSS
notes: also called W109R, Q114L
kd relative to VHH1 kd (IL-2 [2]): > 6 fold of VHH1 kd

B8: VHH7 (VHH)
VHH: EVQLVESGGGLVQPGGSLRLSCAASGSIFSINVMGWYRQAPGKGLELVAAISSGGSTNYADSVKGRFTISRDNAKNTVYLQMNSLKPEDTAVYYCMYASSWYEDETDYWGQGTQVTVSS
notes: In the functional rows it stood as the masking moiety of construct C9; also called Q44G, R45L
EC50 (pM) of intact construct C9, HEK Blue cell-based reporter assay (IL-2 V2): 6240 pM
Fold Change (Intact/Cleaved), construct C9, HEK Blue assay (IL-2 V2): 201 fold
Fold Change (Intact/Parental), construct C9, HEK Blue assay (IL-2 V2): 186 fold
Kd (IL-2 [1]): 0.187 nM
koff (IL-2 [1]): 0.000111 s⁻¹
kon (IL-2 [1]): 595000 M⁻¹ s⁻¹

B10: VHH12 (VHH)
VHH: EVQLVESGGGLVQPGGSLRLSCAASGSIFSINVMGWYRQAPGKGRELVAAISSGGSTNYADSVKGRFTISRDNAKNTVYLQMNSLKPEDTAVYYCAYASSYYEDETDYWGQGTQVTVSS
notes: In the functional rows it stood as the masking moiety of constructs C13 and C1; also called Q44G, M96A, W101Y
EC50 (pM) of intact construct C13, HEK Blue cell-based reporter assay (IL-2 V2): 3130 pM
Fold Change (Intact/Cleaved), construct C13, HEK Blue assay (IL-2 V2): 158 fold
Fold Change (Intact/Parental), construct C13, HEK Blue assay (IL-2 V2): 93.1 fold
Kd (IL-2 [1]): 12.7 nM
koff (IL-2 [1]): 3.97 s⁻¹
Average EC50 (nM) with MMP, construct C1, pSTAT5 on CD8+ T cells of hPBMCs (IL-2 V3): 0.051 nM
Average EC50 (nM) without MMP, construct C1, pSTAT5 on CD8+ T cells of hPBMCs (IL-2 V3): 28.1 nM
Fold Change (Cleaved/Unmasked Control), construct C1 (IL-2 V3): 0.9 fold
Fold Masking (Uncleaved/Unmasked Control), construct C1 (IL-2 V3): 511 fold
